Assay results as given in US9206239B2, “Treatment of cancers with immunostimulatory HIV Tat derivative polypeptides” (PIN Pharma, Inc., priority 2009, dated 2015).
Entries after “also recorded” stand apart in the source; their conditions may differ.

Legend:
[1] = system: Human monocytes; experiment: CD86 expression on human monocytes cultured with Tat derivative; type: cell-based; settings: human monocytes cultured 24-28 hours; compared with ISS (TLR) or LPS
Procedure: Human monocytes were cultured for 24-28 hours with a Tat derivative (Nani-P2), an immunostimulatory sequence (ISS) of a toll-like receptor (TLR) (FIG. 1) or lipopolysaccharide (LPS) (FIG. 2) and the cells were then washed and stained with fluorescent-labeled CD86.

[2] = system: 4T1 breast tumor cells; experiment: 4T1 breast tumor growth in BALB/c mice; type: in vivo
From the text: Female BALB/c mice 6 to 8 weeks old were purchased from the Jackson Laboratory (Bar Harbor, […].). Mice were acclimated for at least 1 week before use. Mice were kept in pathogen-free conditions at the Animal Maintenance Facility of the Columbia University of Medical Center and all experiments were approved by the Institutional Animal Care and Use Committee of Columbia University of Medical Center.
(§1) 4T1 cells, a 6-thioguanine-resistant cell line derived from a BALB/c spontaneous mammary carcinoma was obtained from ATCC; TS/A, a murine adenocarcinoma cell line was provided by Dr. Sandra Demaria (Demaria S. et al. Clin Cancer Res. 11:728-34, 2005); and SM1, the BALB/C-derived mammary carcinoma was kindly was provided by Dr. James Allison, University of California, Berkeley. All tumor cell lines were cultured in DMEM, supplemented with 2 mM L-glutamine, 10 mM HEPES, 150 units/ml penicillin/streptomycin, 10% heat-inactivated FCS (Invitrogen), 50 μM 2-mercaptoethanol (Sigma), and 50 mg/L gentamicin (Lanza).
(§2) BALB/c were injected (SC) with 1×10^4 4T1, 1×10^5 TS/A or 2×10^5 SM1 cells, respectively, in the left mammary pad on day 0. Immunotherapy was performed by directly injecting a Tat derivative into the right flank at 0, 7, 12, and 17 days after establishment of tumors. The control group received PBS injection. […] Tumor burden (tumor volume) was measured and recorded three times weekly. Animals were sacrificed when tumors reached a volume of 15 mm in diameter and the tumors harvested and weighed.
The therapeutic effect of systemic administration of synthetic, Tat-derived compositions in murine models of breast cancer was investigated. To compare the relative protection conferred by a small panel of different derivatives against primary breast tumor growth, female BALB/c mice were injected with 1×10^4 4T1 breast tumor cells SC into the mammary pad, and then treated with 400 ng partially-purified Tat derivatives at day 0, 7, 14 and 21 (SC injection in PBS) into the draining axillary lymph nodes.

[3] = system: 4T1 breast tumors; experiment: Kaplan-Meier survival of mice bearing 4T1 breast tumors; type: in vivo, BALB/c mice; settings: for survival: day 47
Procedure: as §2
Data were statistically analyzed using Student's t-test (Graph Pad Prism version 5; GraphPad). Data from animal survival experiments were statistically analyzed using log-rank test (Graph Pad Prism version 5).
To determine whether Nani-P2 treatment could extend survival in addition to shrinking primary tumors in mice, treatment protocols using various dosing schedules and routes (SC, IV or IT) of administration of 40 ng Nani-P2 were performed. Cohorts of ten mice per group were followed for length of survival, as assessed by use of the Kaplan-Meier product limit method. As per Columbia University Medical Center Animal Facility regulations, each mouse was euthanized at a mean tumor diameter of approximately 15 mm, or earlier if the mouse became moribund, making one of these two outcomes the defining criteria for fatality.

[4] = system: TS/A breast cancer cells; experiment: TS/A breast carcinoma model; type: in vivo, mice; settings: for primary anti-cancer difference vs control: p<0.01
Procedure: as §1, §2

[5] = Toxicity observation in treated mice; type: in vivo; settings: SC or IV administration of 40 ng, multiple trials and dosing schedules
[6] = system: 4T1 cells; experiment: Repeated dosing of Nani-P2 alternating with cyclophosphamide in 4T1 tumor-bearing mice; type: in vivo, BALB/c mice
Procedure: Four groups of 10 BALB/c mice were implanted with 1×10^4 4T1 cells SC into the mammary fat pad. Treatment was initiated when tumor diameters reached 4-5 mm, on day 10. Control mice were injected IV with PBS at 3 days intervals, while alternating treatment mice received 3 doses of drug every 3 days in rotating 10 day cycles. Tumor burden (tumor size mm^3) was calculated using a standard formula. CY: (cyclophosphamide alone) mice were injected IP weekly with 80 mg/kg per mouse beginning on day 10. Cy/Nani-P2: (cyclophosphamide first followed by Nani-P2) mice were first injected IP with cyclophosphamide (80 mg/kg) at 3 days intervals for three doses starting at day 10 and then injected IV with Nani-P2 (40 ng) at 3 days intervals for three doses in rotation. The cycle of 3 doses of CY followed by 3 doses of Nani-P2 was repeated until day 50. Nani-P2/CY: (Nani-P2 first followed by cyclophosphamide): mice were first injected IV with Nani-P2 (40 ng) at 3 day intervals for 3 doses starting on day 10 and then injected i.p. with cyclophosphamide at 3 day intervals in rotation. The cycle of 3 doses of Nani-P2 followed by 3 doses of CY was repeated until day 50.

[7] = system: 4T1 breast tumor cells; experiment: 4T1 breast tumor growth in BALB/c mice; type: in vivo; remark: listed apart in the source
[8] = day 50, Nani-P2 alternating with cyclophosphamide

B1: Nani-P2: HIV Tat derivative polypeptide, SEQ ID NO: 3; derivatized Tat amino terminus from an African Green Monkey variant SIV (protein)
chain: MDPKGEEDQDVSHQDLIKQYRKPRTACNNCYCKKCCFHCYACFLRKGLGITYHAFRTRRKKIASADRIPVPQQSISIRGRDSQTTQESQKKVEEQAKANLRISRKNLGDETRGPVGAGN
modifications: Nani-P2 modified HIV Tat sequence
notes: derivatized Tat amino terminus from an African Green Monkey variant SIV
expression of CD86 [1]: higher expression of CD86 than either ISS (TLR) or LPS | tumor burden compared to control mice receiving PBS ([2]; 400 ng partially-purified derivative SC day 0, 7, 14, 21, apparent from day 15 (p<0.05)): significantly reduced tumor burden | decrease of tumor burden on average ([2]; SC therapy initiated on day 0 after tumor cell injection): 53% | difference in primary tumor burden between Nani-P2 and Nani-P1-treated tumors ([2]; day 21 (final dosing), 400 ng SC, p<0.01): 18 mm^3 | anti-tumor efficacy on increasing the dose ([2]; dose increased to 400 ng and 2 μg (data not shown)): no further anti-tumor efficacy | survival, intratumoral administration ([3]; IT, 40 ng weekly x3, tumors established fourteen days): slightly inferior to SC administration | survival ([3]; IV, 40 ng weekly x3, tumors established fourteen days, p<0.005): 60% | survival ([3]; SC, 40 ng weekly x3, tumors established fourteen days, p<0.05): 20% | treated mice still alive ([3]; day 48, 40 ng SC, 4 doses over 21 days from day 0, p<0.001): 35% | duration of tumor growth inhibition and survival benefits past the last dosing ([3]; established 4T1 tumors, treated intravenously): at least 36 days | suppression of growth ([4]; 0.4 ng SC): ~50% | primary anti-cancer difference vs control ([4]; 40 ng SC): highly significant | total remission rate ([4]; at 30 days): 40% | primary anti-cancer difference vs control ([4]; lowest dose (0.4 ng SC)): highly significant | toxicity [5]: no toxicity was observed | survival benefit vs weekly cyclophosphamide ([6]; Nani-P2 bolus treatment alternating with cyclophosphamide, p=0.0001): highly statistically significant | mice in partial remission [6, 8]: 9/10 | mice in total remission [6, 8]: 3/10 | difference in mean tumor volume vs control group ([7]; 4 ng or 40 ng per mouse, four times over 21 days): highly significant | primary tumor burden vs PBS control, established tumors ([7]; 40 ng IV weekly for three weeks from day 14, trial 50 days, p<0.01): statistically significant benefit in primary tumor suppression; also recorded: highly significant | animals with complete remission, disease-free ([7]; 40 ng IV weekly x3 from day 14, at 50 days): 1/10 and One of 10 | mice with regression of tumor at the initial treatment ([7]; 40 ng IV, initial treatment on day 14): 7/10 | decrease of tumor burden on average at maximal effect ([7]; SC therapy begun on day 13, tumors about 5 mm in diameter): 52% | breast tumor growth inhibitory effect on 4T1 tumors ([7]; highly-purified, SC, 0.4 ng to 40 ng per dose): dose-dependent
